Experimental data: patent US20210070876A1 (LES LABORATOIRES SERVIER, published 2021)

Experiments:
[1] = biological target: T1, His-tagged human CD73 ECD (human, UniProt P21589 27-549); test: SEC-MALS, mAb:CD73 0.5:1
T1 construct: runs as a homodimer of about 124-125 kDa in SEC-MALS; also called CD73-His; CD73-His ECD antigen
T1 sequence: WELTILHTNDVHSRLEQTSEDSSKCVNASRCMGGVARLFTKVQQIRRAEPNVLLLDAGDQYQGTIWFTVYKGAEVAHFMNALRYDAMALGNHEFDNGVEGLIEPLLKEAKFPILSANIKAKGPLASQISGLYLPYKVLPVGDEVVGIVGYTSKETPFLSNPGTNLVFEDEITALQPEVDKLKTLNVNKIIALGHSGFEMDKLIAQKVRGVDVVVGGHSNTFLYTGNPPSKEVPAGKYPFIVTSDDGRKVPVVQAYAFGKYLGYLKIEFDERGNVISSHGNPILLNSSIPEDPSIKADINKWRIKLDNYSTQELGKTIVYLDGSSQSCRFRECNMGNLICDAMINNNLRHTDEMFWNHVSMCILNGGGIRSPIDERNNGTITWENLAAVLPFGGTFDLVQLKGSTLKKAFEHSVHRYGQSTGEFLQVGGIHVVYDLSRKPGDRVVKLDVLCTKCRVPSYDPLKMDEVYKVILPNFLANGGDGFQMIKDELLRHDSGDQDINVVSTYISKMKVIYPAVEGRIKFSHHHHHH
Protocol: Anti-CD73 antibodies and His-tagged CD73 were analyzed in different ratios as well as individually to analyze the size of complexes formed between CD73 homodimer and anti-CD73 antibodies. Samples were prepared by mixing […] of CD73-His with 900, 450, 90 or 0 μmol of antibody diluted into PBS, pH 7.4. Samples were incubated for 30 min at room temperature followed by separation using a UHPLC UltiMate 3000 (Thermo Scientific) and SEC X-Bridge column (Waters) at a flow rate of 1.2 mL/min. Sample running buffer was 0.01 M Citrate, 250 mM L-Arginine.HCl, pH 6.0. Following HPLC separation, all samples were analyzed using a MiniDAWN TREOS MALS detector (Wyatt) and Optilab T-rEX refractive index detector (Wyatt). Data plots were generated using Graph Pad Prism.

mouse CD73 = biological target: T2, mouse CD73 (mouse, UniProt Q61503 29-549, limits assumed); test: not described (statement in the methods of Example 22)
T2 construct: Only named in a sentence on cross-reactivity
T2 sequence (looked up): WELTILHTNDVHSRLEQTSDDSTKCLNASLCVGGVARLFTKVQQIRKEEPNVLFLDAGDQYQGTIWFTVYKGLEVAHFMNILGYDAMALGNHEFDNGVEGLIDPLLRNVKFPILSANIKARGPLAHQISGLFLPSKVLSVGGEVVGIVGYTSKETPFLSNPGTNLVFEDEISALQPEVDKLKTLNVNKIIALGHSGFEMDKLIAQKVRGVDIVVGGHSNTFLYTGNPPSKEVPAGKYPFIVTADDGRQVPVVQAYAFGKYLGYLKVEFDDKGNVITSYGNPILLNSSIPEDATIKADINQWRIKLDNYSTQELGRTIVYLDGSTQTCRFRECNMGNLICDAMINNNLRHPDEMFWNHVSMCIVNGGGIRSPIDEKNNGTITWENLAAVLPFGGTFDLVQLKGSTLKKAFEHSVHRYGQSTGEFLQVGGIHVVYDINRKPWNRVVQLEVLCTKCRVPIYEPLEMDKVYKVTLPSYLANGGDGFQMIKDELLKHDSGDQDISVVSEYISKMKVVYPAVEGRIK

[2] = biological target: T3, human CD73 expressed on cells (human, UniProt P21589 27-549); test: flow cytometry on CHO-S cells transiently expressing human CD73, AF647 anti-human IgG (H+L) secondary, GeoMean
T3 construct: also called 5'-NT; human CD73 on CHO-S cells
T3 sequence: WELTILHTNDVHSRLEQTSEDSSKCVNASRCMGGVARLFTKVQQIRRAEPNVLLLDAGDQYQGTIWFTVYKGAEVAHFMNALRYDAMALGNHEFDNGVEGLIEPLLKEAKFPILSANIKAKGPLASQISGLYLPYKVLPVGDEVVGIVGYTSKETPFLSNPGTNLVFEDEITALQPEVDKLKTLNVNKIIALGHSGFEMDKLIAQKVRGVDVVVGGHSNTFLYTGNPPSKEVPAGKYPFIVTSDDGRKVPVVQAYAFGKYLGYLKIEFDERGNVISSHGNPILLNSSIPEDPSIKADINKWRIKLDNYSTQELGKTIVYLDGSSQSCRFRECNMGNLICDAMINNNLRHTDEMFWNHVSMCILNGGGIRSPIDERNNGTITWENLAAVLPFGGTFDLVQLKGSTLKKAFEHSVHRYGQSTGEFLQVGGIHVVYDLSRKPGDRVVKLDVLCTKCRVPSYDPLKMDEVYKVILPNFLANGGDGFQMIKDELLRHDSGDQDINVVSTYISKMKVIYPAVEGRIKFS
Protocol: (§1) The anti-CD73 antibodies were incubated with the hamster CHO-S cell line transiently expressing human or cynomolgus CD73 for 30 minutes at 4° C. The cells were washed twice and subsequently incubated for an additional 20 minutes with AF647-conjugated secondary anti-human IgG (H+L) antibody. After the washing step, antibody binding was detected using the high-throughput flow cytometer iQue Screener PLUS (Sartorius) measuring the GeoMean of AF647 signal in each well. Every concentration was assayed in triplicate and a 12-point titration curve was generated for each antibody.

[3] = biological target: T4, cynomolgus CD73 expressed on cells (cynomolgus monkey (Macaca fascicularis), UniProt A0A2K5V5U7 27-549); test: flow cytometry on CHO-S cells transiently expressing cynomolgus CD73, AF647 anti-human IgG (H+L) secondary, GeoMean
T4 construct: whole, on cells; also called cynomolgus CD73 on CHO-S cells; CD73 on Cynom-K1 cells
T4 sequence: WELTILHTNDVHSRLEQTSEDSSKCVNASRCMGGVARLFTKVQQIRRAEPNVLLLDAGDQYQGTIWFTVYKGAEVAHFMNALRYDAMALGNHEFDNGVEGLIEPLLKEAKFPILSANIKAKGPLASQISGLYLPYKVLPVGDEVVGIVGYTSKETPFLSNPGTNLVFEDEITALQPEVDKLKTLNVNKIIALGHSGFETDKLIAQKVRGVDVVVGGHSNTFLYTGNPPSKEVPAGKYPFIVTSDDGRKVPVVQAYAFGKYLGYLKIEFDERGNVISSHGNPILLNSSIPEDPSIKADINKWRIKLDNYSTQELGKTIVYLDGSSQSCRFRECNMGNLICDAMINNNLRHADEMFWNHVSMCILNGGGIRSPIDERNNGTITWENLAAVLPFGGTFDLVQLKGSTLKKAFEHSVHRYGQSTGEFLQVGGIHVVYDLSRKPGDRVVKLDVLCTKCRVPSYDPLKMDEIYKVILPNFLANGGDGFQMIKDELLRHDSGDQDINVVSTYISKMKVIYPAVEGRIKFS
Protocol: as §1

- molecular mass of complex, Peak 2 (MW, kDa) [1]: 277 kDa
- binding result (mouse CD73): no binding
- EC50 (read off the curve) [2]: ~5 ng/mL
- EC50 (read off the curve) [3]: ~4 ng/mL
B1: antibody 21127 (antibody, human IgG1, kappa, L234A L235A, V domains shown)
VH: EVQLVESGGGLVQPGRSLRLSCAASGFTFDDFAMHWVRQAPGKGLEWVSGISWNSGNIGYADSVKGRFTISRDNAKNSLYLQMNSLRAEDTALYYCAKDKSGSPYYYYGMDVWGQGTMVTVSS
VL: DIQMTQSPSSVSASVGDRVTITCRATQGISRRLAWYQQKPGKAPKLLIYAASSLQSGVPSRFSGSGSGTDFTLTISSLQPEDFATYYCQQANSFPLTFGGGTKVEIKR
notes: Fully human IgG1-LALA (L234A/L235A), kappa
